Results taken from CN117466995A (YIDAO BIOTECHNOLOGY SUZHOU CO LTD, dated 2024).

Experiments:
Assay in all cases: direct ELISA on coated VLP antigens
[1] = molecular target: T1, HPV 52 VLP抗原 (HPV 52, UniProt Q05138 27-529)
T1 sequence: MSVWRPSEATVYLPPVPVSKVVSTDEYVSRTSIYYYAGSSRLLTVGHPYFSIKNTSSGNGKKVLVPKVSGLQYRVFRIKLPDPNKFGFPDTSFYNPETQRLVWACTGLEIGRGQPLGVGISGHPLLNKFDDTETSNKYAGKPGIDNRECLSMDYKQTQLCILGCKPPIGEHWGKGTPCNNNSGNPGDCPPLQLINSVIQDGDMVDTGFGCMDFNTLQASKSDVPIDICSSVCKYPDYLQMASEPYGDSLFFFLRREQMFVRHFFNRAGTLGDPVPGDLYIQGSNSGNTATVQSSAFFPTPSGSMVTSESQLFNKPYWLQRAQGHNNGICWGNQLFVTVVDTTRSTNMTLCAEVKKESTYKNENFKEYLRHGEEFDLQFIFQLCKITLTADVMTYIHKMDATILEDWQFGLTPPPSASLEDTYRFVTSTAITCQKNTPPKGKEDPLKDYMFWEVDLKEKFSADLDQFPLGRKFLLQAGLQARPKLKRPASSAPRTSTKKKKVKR

[2] = molecular target: T2, HPV11 VLP抗原 (HPV11, UniProt P04012 1-501)
T2 sequence: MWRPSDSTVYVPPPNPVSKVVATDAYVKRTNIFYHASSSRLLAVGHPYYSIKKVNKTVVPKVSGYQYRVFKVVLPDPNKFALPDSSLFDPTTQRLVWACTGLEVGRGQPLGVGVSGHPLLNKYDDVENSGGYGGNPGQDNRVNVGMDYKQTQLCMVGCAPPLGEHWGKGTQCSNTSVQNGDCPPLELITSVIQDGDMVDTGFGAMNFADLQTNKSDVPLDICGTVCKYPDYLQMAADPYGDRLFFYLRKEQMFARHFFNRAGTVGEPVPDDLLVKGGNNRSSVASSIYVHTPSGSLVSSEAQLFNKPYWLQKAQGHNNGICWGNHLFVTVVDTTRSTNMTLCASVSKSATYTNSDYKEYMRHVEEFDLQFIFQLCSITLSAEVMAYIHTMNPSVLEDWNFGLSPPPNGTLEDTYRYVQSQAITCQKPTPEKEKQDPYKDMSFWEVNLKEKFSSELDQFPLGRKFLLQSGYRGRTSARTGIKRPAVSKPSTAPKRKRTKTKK

[3] = molecular target: T3, HPV 16 VLP抗原 (HPV 16, UniProt P03101 1-505)
T3 sequence: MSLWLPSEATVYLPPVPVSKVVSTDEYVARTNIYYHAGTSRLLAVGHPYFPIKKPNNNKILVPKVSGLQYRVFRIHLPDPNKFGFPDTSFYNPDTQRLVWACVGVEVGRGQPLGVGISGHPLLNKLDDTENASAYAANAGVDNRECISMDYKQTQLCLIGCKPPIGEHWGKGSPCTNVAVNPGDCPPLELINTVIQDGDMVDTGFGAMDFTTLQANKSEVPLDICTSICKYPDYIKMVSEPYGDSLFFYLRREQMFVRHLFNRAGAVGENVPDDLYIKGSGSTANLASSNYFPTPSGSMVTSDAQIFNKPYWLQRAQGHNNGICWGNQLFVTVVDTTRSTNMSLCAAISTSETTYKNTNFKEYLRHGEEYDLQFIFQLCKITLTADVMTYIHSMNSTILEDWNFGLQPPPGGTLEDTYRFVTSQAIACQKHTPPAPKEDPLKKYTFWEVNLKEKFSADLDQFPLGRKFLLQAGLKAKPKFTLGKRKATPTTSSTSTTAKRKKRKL

[4] = molecular target: T4, HPV 18 VLP抗原 (HPV 18, UniProt P06794 62-568)
T4 sequence: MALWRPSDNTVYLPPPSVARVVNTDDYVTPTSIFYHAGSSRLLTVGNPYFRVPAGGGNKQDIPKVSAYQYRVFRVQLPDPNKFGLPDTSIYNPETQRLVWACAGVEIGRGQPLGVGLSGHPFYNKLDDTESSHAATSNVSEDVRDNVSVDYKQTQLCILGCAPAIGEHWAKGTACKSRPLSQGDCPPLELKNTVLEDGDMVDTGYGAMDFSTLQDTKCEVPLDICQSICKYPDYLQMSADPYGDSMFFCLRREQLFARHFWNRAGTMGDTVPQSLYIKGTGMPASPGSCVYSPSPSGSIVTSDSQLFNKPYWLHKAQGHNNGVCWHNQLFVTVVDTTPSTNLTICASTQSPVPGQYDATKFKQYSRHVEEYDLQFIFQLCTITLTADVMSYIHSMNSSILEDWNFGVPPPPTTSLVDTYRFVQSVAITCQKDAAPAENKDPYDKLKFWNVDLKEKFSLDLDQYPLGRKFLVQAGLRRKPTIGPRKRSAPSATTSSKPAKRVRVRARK

[5] = molecular target: T5, HPV 33 VLP抗原 (HPV 33, UniProt P06416 1-499)
T5 sequence: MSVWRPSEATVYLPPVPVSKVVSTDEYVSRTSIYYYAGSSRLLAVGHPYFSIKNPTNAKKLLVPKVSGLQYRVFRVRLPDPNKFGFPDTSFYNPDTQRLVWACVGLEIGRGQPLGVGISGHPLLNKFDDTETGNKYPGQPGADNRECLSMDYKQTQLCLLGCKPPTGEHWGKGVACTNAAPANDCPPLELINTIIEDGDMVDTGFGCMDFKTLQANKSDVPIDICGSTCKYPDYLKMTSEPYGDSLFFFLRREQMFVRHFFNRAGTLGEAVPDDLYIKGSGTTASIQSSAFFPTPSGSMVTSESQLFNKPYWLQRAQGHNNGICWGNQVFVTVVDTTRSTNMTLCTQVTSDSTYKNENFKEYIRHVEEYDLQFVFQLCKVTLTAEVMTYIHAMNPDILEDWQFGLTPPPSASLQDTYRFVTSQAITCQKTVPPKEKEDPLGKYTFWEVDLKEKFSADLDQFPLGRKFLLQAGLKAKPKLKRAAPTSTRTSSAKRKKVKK

Measured: binding result

B1: 杂交瘤细胞株7A5(CGMCC NO:45706)分泌的鼠源单克隆抗体 (antibody, V domains shown)
VH: QPGAELVKPGASVKLSCKASGYTFTSYWMHWVKQRPGQGLEWIGEINPSNGHTNYNEKFKSKATLTVDKSSSTAYMQLSSLTSEDSAVYYCAPCYGSSYDYYAMDYWGQGTSVTVSS
VL: DIVLTQSPASLAVSLGQRATISCRASQSVSTSSYSYMHWYQQKPGQPPKLLIKYASNLESGVPARFSGSGSGTDFTLNIHPVEEEDTATYYCQHSWEIPYTFGGGTKLEIK
notes: also called 鼠单抗7A5; 抗体7A5
no binding: all assays above

B2: 杂交瘤细胞株11G1(CGMCC NO:45707)分泌的鼠源单克隆抗体 (antibody, V domains shown)
VH: QVQLQQPGAELVKPGASVKLSCKASGYTFTSYWMHWVKRRPGQGLEWIGEINPSNGLTNYNEKFKSKGTLTVDKSSSAAFMHLSSLTSEDSAVYYCARFHGSDLYAMDYWGQGTSVTVSS
VL: B1 VL
notes: also called 鼠单抗11G1; 抗体11G1
no binding: all assays above
